Measurements as given in US20240279277A1, “PREPARING METHOD OF HIGHLY FUNCTIONAL PEPTIDE DERIVED FROM KERATINOCYTE PROTEIN” (ANPEP INC., priority 2021, published 2024).

Biological target: T1, elastase (type I: derived from porcine pancreas) (Sus scrofa, UniProt P00772)
T1 construct: type I: derived from porcine pancreas; purchased Sigma Aldrich, USA; host or cells: porcine pancreas (tissue-derived)
Test: Elastase inhibition test (p-nitroanilide release, absorbance 410 nm)
Type: biochemical
Settings: peptides and controls 100 μg/mL; N-succinyl-(L-Ala) 3-p-nitroanilide substrate, 37 °C, 30 minutes
Protocol: In order to confirm the anti-wrinkle effect of tetrapeptides, a test of inhibiting elastase was performed. The amount of p-nitroanilide produced was measured using N-succinyl-(L-Aal) 3-p-nitroanilide as a substrate at 37 °C for 30 minutes. After adding each of the peptides to be tested and negative and positive controls in an amount of 100 μg/mL into test tube, respectively, a pancreatic solution (type I: derived from porcine pancreas, 0.6 unit/mL, Sigma Aldrich, USA) in an amount of […] was added thereto. Thereafter, a substrate, in which N-succinyl-(L-Ala) 3-p-nitroanilide (1 mg/mL) was dissolved in 50 mM Tris-HCl buffer (pH 8.6), was added in an amount of […] thereto and allowed to react for 30 minutes and the absorbance was measured at 410 nm using a microplate reader. The elastase inhibitory activity was expressed as a decrease rate in absorbance of the groups with and without the addition of the sample solution as shown in Equation 1 below.
After treating the 42 kinds of synthesized peptides, their effects on inhibition of elastase were measured.

T1 sequence (P00772 27-266): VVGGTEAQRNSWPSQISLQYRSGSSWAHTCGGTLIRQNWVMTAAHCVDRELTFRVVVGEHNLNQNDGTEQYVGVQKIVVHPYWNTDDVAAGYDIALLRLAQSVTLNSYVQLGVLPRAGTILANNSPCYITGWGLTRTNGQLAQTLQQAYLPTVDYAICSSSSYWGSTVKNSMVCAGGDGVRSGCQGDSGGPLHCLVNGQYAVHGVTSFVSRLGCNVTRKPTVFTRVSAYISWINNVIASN

Elastase Inhibition Rate(%)	Compound
28.8	C[C@H]1[C@H](C)CC[C@]2(C(=O)O)CC[C@]3(C)C(=CC[C@@H]4[C@@]5(C)CCC(=O)C(C)(C)[C@@H]5CC[C@]43C)[C@H]12 [Ursonic acid, reference compound]
77.2	CAPQ (Tetra Peptide) [Sample 14, tetrapeptide]
47.4	CFSS (Tetra Peptide) [Sample 21, tetrapeptide]
118.4	DCVK (Tetra Peptide) [Sample 5, tetrapeptide]
69.7	EGQL (Tetra Peptide) [Sample 30, tetrapeptide]
66.3	EHQE (Tetra Peptide) [Sample 29, tetrapeptide]
90.5	ELPE (Tetra Peptide) [Sample 24, tetrapeptide]
53.6	EQQE [25] (Tetra Peptide) [Sample 25, tetrapeptide]
64.2	EQQE [37] (Tetra Peptide) [Sample 37, tetrapeptide]
49.5	EVQW (Tetra Peptide) [Sample 42, tetrapeptide]
69.1	FSSG (Tetra Peptide) [Sample 22, tetrapeptide]
55.2	GCFS (Tetra Peptide) [Sample 20, tetrapeptide]
103.5	GGSG [Sample 18]
34.5	GQDP (Tetra Peptide) [Sample 34, tetrapeptide]
73.2	GQLE (Tetra Peptide) [Sample 23, tetrapeptide]
56.0	GQLK (Tetra Peptide) [Sample 27, tetrapeptide]
33.9	GQVS (Tetra Peptide) [Sample 10, tetrapeptide]
56.3	GSGY (Tetra Peptide) [Sample 9, tetrapeptide]
58.3	GSSG (Tetra Peptide) [Sample 19, tetrapeptide]
78.5	GYVS (Tetra Peptide) [Sample 11, tetrapeptide]
79.3	KHLE (Tetra Peptide) [Sample 28, tetrapeptide]
44.5	KTSG (Tetra Peptide) [Sample 7, tetrapeptide]

Elastase Inhibition Rate(%)	Compound
78.2	LELP (Tetra Peptide) [Sample 26, tetrapeptide]
70.6	LEVP (Tetra Peptide) [Sample 31, tetrapeptide]
79.4	MSYQ (Tetra Peptide) [Sample 1, tetrapeptide]
64.0	PEEQ (Tetra Peptide) [Sample 32, tetrapeptide]
72.5	PPVD (Tetra Peptide) [Sample 4, tetrapeptide]
69.3	PTPQ (Tetra Peptide) [Sample 3, tetrapeptide]
88.7	QKKQ (Tetra Peptide) [Sample 2, tetrapeptide]
60.5	QLKY (Tetra Peptide) [Sample 35, tetrapeptide]
55.6	QMGQ (Tetra Peptide) [Sample 33, tetrapeptide]
63.5	QPSY (Tetra Peptide) [Sample 15, tetrapeptide]
72.3	QQKQ (Tetra Peptide) [Sample 41, tetrapeptide]
49.6	SGGS (Tetra Peptide) [Sample 8, tetrapeptide]
49.3	SQQV (Tetra Peptide) [Sample 12, tetrapeptide]
77.0	SSGG (Tetra Peptide) [Sample 17, tetrapeptide]
59.3	TKGE (Tetra Peptide) [Sample 38, tetrapeptide]
59.0	TQTS (Tetra Peptide) [Sample 13, tetrapeptide]
55.7	VEHQ (Tetra Peptide) [Sample 40, tetrapeptide]
66.3	VKTS (Tetra Peptide) [Sample 6, tetrapeptide]
60.7	VLLP (Tetra Peptide) [Sample 39, tetrapeptide]
67.1	YGGG (Tetra Peptide) [Sample 16, tetrapeptide]
72.3	YLEQ (Tetra Peptide) [Sample 36, tetrapeptide]
